The values below come from patent US5618696A, “Human kunitz-type protease inhibitor and variants thereof” (Novo Nordisk A/S, priority 1992, dated 1997).

The target of one data set is T1, granulocyte elastase (Homo sapiens, UniProt P08246).
T1 sequence (P08246 30-267): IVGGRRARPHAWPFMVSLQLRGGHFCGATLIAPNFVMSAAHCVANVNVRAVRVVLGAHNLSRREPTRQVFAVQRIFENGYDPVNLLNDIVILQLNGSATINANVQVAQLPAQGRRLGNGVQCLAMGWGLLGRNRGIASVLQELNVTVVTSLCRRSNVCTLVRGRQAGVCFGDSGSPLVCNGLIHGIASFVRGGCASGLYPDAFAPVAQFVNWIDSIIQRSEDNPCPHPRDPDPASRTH
The following applies: cited from earlier work.

Another data set deals with collagenase. The settings on record: cited from earlier work.
Data set [1] deals with T2, bovine chymotrypsin (TLCK treated) (Bos taurus, UniProt P00766).
T2 construct: purchased Sigma Chemical Co. (St. Louis, Mo., U.S.A.)
Put plainly: Inhibition of chymotrypsin by HKIB9 variants. Type of data set: biochemical. The following applies: at 1 μM. As to the method:
(§1) Their concentration was determined from the absorbance at 214 nm using aprotinin as a standard. Porcine trypsin was obtained from Novo Nordisk A/S, bovine chymotrypsin (TLCK treated) was obtained from Sigma Chemical Co. (St. Louis, Mo., U.S.A.). Human neutrophil cathepsin G and elastase were purified from extracts of PMNs according to the method described by Baugh and Travis, Biochemistry 15, 1976, pp. 836-843.
(§2) Peptidyl nitroanilide substrates S2251 and S2586 were obtained from Kabi (Stockholm, Sweden). S7388 and M4765 were obtained from Sigma Chemical Co.
(§3) Serine proteinases were incubated with various concentrations of the variants for 30 minutes. Substrate was then added and residual proteinase activity was measured at 405 nm.

Data set [2] has as its target T3, Human neutrophil cathepsin G (Homo sapiens, UniProt P08311).
T3 construct: Human neutrophil cathepsin G and elastase were purified from extracts of PMNs; from tissue; host or cells: human polymorphonuclear leukocytes (PMNs), method of Baugh and Travis
T3 sequence (P08311 21-255): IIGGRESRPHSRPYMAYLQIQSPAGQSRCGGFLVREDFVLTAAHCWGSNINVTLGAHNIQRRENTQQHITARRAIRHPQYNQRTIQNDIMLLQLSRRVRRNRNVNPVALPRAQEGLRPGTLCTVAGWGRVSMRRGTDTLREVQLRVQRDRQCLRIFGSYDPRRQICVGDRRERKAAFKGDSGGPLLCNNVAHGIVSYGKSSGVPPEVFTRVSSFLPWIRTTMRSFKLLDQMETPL
The data set is described as follows: Inhibition of cathepsin G by HKIB9 variants. Type of data set: biochemical. The settings on record: at 1 μM. As to the method: as §1, §2, §3

In another data set the target is T4, Porcine trypsin (Sus scrofa, UniProt P00761).
T4 construct: purchased Novo Nordisk A/S
The data set is described as follows: Inhibition of trypsin by HKIB9 variants. The class given is biochemical. The following applies: at 1 μM. As to the method: as §1, §2, §3

Data set [3] is described as follows: Net charge of the inhibitor. Type of data set: physicochemical.
For data set [4] the following is noted: high doses, including cardiopulmonary bypass operations; cited from earlier work.
In another data set the target is plasmakallikrein (Homo sapiens, UniProt P03952). The following applies: cited from earlier work.
Data set [5] has as its target bovine chymotrypsin (TLCK treated) (bovine) (UniProt P00766).
Data set [6] addresses Human neutrophil elastase (human, UniProt P08246). Put plainly: enzyme inhibition: proteinase incubated with various concentrations of the variant for 30 min, residual activity on peptidyl nitroanilide substrate at 405 nm. As to the method:
as §3

Where no end group is shown, it is not given here.

T4 sequence (P00761 9-231): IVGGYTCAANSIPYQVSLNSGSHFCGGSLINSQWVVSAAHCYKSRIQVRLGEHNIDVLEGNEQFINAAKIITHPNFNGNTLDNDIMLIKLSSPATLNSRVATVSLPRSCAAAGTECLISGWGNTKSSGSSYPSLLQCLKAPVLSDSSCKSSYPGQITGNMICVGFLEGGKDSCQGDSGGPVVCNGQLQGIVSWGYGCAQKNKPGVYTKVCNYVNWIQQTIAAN
Chain of plasmakallikrein (P03952 20-638, species assumed): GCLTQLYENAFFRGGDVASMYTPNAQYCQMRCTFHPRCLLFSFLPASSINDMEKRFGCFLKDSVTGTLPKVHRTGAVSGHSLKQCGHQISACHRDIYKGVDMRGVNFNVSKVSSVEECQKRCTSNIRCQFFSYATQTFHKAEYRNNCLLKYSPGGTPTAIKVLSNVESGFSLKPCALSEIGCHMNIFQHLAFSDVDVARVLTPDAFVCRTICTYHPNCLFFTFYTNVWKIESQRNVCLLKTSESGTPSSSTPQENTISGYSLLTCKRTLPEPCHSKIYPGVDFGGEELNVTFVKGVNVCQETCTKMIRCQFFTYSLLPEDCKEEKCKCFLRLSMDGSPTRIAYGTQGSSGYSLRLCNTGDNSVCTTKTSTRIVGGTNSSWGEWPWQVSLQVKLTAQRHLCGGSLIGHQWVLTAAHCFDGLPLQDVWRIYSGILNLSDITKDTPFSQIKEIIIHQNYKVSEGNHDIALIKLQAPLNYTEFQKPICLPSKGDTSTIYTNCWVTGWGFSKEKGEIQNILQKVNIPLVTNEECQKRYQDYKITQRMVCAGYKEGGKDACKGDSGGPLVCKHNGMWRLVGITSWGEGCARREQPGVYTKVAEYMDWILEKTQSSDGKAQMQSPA

Turning to aprotinin(1-58, Val15), the “effect on / selectivity for granulocyte elastase” value on granulocyte elastase was “relatively high selectivity”. Moreover, in the data set on collagenase, the effect on collagenase entry is reported as “inhibitory effect”.

In turn, “[Q15V, T16A]-HKIB9 (DLLPNVCAFPMEKGPCVAYMTRWFFNFETGECELFAYGGCGGNSNNFLRKEKCEKFCKFT) [KFN 1930, HKIB9 Kunitz domain variant produced from yeast strain KFN-1930 (plasmid pKFN-1916)]” showed an inhibition of chymotrypsin in data set [1] of 5%. In data set [2], the “inhibition of cathepsin G” value was “not to inhibit”. Besides, the inhibition of trypsin result with Porcine trypsin is on record as “not to inhibit”.

Turning to aprotinin (1-58, Ala15), the “effect on / selectivity for granulocyte elastase” value at granulocyte elastase was “weak effect”.

In the case of “HKI B9: novel human Kunitz-type protease inhibitor domain, SEQ ID No. 1, produced from yeast strain KFN-1830 (DLLPNVCAFPMEKGPCQTYMTRWFFNFETGECELFAYGGCGGNSNNFLRKEKCEKFCKFT)”, the net charge entry in [3] is reported as “zero”.

Take “[Q15V, T16G]-HKIB9 (DLLPNVCAFPMEKGPCVGYMTRWFFNFETGECELFAYGGCGGNSNNFLRKEKCEKFCKFT) [KFN 1902, HKIB9 Kunitz domain variant produced from yeast strain KFN-1902 (plasmid pKFN-1892)]”: the inhibition of chymotrypsin in data set [1] is reported as 5%. Also, the “inhibition of cathepsin G” value in data set [2] is given as “not to inhibit”. In addition, in the data set with Porcine trypsin, the inhibition of trypsin entry is given as “not to inhibit”.

As to aprotinin [reference compound], the net charge entry in [3] was “strongly positive”. For the same molecule, the “blood loss in connection with cardiac surgery” value in [4] is recorded as “significantly reduces blood loss”.

With aprotinin (3-58, Arg15, Ala17, Ser42), at plasmakallikrein, the plasmakallikrein inhibitory effect result is reported as “excellent”.

B1: [Q15V, T16G]-HKIB9 (other)
chain: DLLPNVCAFPMEKGPCVGYMTRWFFNFETGECELFAYGGCGGNSNNFLRKEKCEKFCKFT
modifications: ends and bridges not checked; cysteine pairing not given here
Usually Ki stands for a measure of affinity in units of concentration, obtained from inhibition or displacement. B1: the residual proteinase activity measured at 405 nm in data set [5] turned out to be 5%. Further, the inhibition constant Ki in data set [6] was 140 nM.

B2: [Q15V, T16A]-HKIB9 (other)
chain: DLLPNVCAFPMEKGPCVAYMTRWFFNFETGECELFAYGGCGGNSNNFLRKEKCEKFCKFT
modifications: ends and bridges not checked; cysteine pairing not given here
As for B2, the residual proteinase activity measured at 405 nm in data set [5] was determined as 5%. The affinity in data set [6] corresponds to a Ki of 64 nM.
